Data on four molecules can be found in patent US20220242953A1 (JIANGSU HENGRUI MEDICINE, published 2022).

This assay addresses T1, Human CD3 antigen for detection (SinoBiological cat #CT038-H2508H); human CD3 epsilon-His and human CD3 … (human, UniProt P07766 23-126; P04234 22-105).
T1 construct: Bought antigen
Briefly: Biacore T200 SPR, bispecific antibody captured, CD3 antigen as analyte, 1:1 Langmuir fit. The protocol:
The detection of antibody affinity to B7H3 and CD3 was performed in the form of capture antibody. BsAb was captured by CM5 biosensor chip (Cat. #BR-1005-30, GE) or Protein A (Cat. #29127556, GE) biosensor chip coupled with Anti-Human IgG Antibody (Cat. #BR-1008-39, Lot. #10260416, GE), and then each antigen flowed through the surface of the chip. The reaction signals were detected in real time with the Biacore T200 instrument to obtain the binding and dissociation curves. After the dissociation of each experimental cycle was completed, the chip was washed and regenerated with regeneration buffer Glycine1.5 (Cat #BR100354, GE) or 3 M MgCl₂ (from Human antibody capture kit, Cat. #BR100839, GE). The data were fitted with the (1:1) Langmuir model using GE Biacore T200 Evaluation version 3.0 software, and the affinity values were obtained.
In general terms: SPR reads the build-up and loss of mass on a sensor chip optically.

T1 sequence (P07766 other isoform, or with tags, fused parts or gaps H2508H H2508H, chain 1 of 2): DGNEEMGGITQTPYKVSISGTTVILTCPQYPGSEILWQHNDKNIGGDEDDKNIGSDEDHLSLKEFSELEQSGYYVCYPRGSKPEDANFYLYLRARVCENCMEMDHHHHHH
T1 sequence (P04234 other isoform, or with tags, fused parts or gaps H2508H H2508H, chain 2 of 2): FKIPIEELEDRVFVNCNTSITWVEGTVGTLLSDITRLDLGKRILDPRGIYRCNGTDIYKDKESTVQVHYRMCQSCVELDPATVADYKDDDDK

B1: bispecific antibody 113 (AFF 3-2) (bispecific antibody)
chain 1: not shown
chain 2: QTVVTQEPSFSVSPGGTVTLTCGLSSGSVSTSHYPSWYQQTPGQAPRMLIYNTNTRSSGVPDRFSGSILGNKAALTITGAQADDESDYYCAIHVDRDIWVFGGGTKLTVLGGGGSGGGGSGGGGSQVQLVQSGGGVVQPGTSLRLSCAASGFIFSSSAMHWVRQAPGKGLEWVAVISYDGSNKYYVDSVKGRFTISRDNSKNTLYLQMNSLRAEDTAVYYCARSARLYASFDYWGQGALVTVSSGGGDKTHTCPPCPAPEAAGGPSVFLFPPKPKDTLMISRTPEVTCVVVDVSHEDPEVKFNWYVDGVEVHNAKTKPREEQYNSTYRVVSVLTVLHQDWLNGKEYKCKVSNKALPAPIEKTISKAKGQPREPQVCTLPPSREEMTKNQVSLSCAVKGFYPSDIAVEWESNGQPENNYKTTPPVLDSDGSFFLVSKLTVDKSRWQQGNVFSCSVMHEALHNHYTQKSLSLSPGK
notes: B7H3 bivalent CD3-B7H3 bispecific antibody, CD3 VH HRH-2
Molecule B1 gave a Kd of 77.2 nM.

B2: bispecific antibody 154 (AFF3-4) (bispecific antibody)
chain 1: not shown
chain 2: B1 chain 2
notes: B7H3 bivalent CD3-B7H3 bispecific antibody, CD3 VH HRH-4
Regarding B2, the Kd is 69.7 nM.

B3: bispecific antibody 131 (AFF3-1) (bispecific antibody)
chain 1: not shown
chain 2: B1 chain 2
notes: B7H3 bivalent CD3-B7H3 bispecific antibody, CD3 VH HRH-1; two-chain knob/hole Fc format
B3: binding was put at a Kd of 40.7 nM.

B4: bispecific antibody 177 (AFF3-7) (bispecific antibody)
chain 1: not shown
chain 2: B1 chain 2
notes: B7H3 bivalent CD3-B7H3 bispecific antibody, CD3 VH HRH-7
B4 returned a Kd of 162 nM.

A word on the Kd: it is the equilibrium constant for the complex coming apart. Read a high Kd as weaker binding.
